Test results reported in patent US6383734.

B1: recombinant His-tagged mouse PAK3 from Sf9 cells (protein)
chain: MSDSLDNEEKPPAPPLRMNSNNRDSSALNHSSKPLPMAPEEKNKKARLRSIFPGGGDKTNKKKEKERPEISLPSDFEHTIHVGFDAVTGEFTGIPEQWARLLQTSNITKLEQKKNPQAVLDVLKFYDSKETVNNQKYMSFTSGDKSAHGYIAAHQSNTKTASEPPLAPPVSEEEDEEEEEEEDDNEPPPVIAPRPEHTKSIYTRSVVESIASPAAPNKEDIPPSAENANSTTLYRNTDRQRKKSKMTDEEILEKLRSIVSVGDPKKKYTRFEKIGQGASGTVYTALDIATGQEVAIKQMNLQQQPKKELIINEILVMRENKNPNIVNYLDSYLVGDELWVVMEYLAGGSLTDVVTETCMDEGQIAAVCRECLQALDFLHSNQVIHRDIKSDNILLGMDGSVKLTDFGFCAQITPEQSKRSTMVGTPYWMAPEVVTRKAYGPKVDIWSLGIMAIEMVEGEPPYLNENPLRALYLIATNGTPELQNPERLSAVFRDFLNRCLEMDVDRRGSAKELLQHPFLKLAKPLSSLTPLIIAAKEAIKNSSR
B2: full-length PAK3 from rat spleen lysate (protein)
chain: SDNGELEDKPPAPPVRMSSTIFSTGGKDPLSANHSLKPLPSVPEEKKPRNKIISIFSSTEKGSKKKEKERPEISPPSDFEHTIHVGFDAVTGEFTGMPEQWARLLQTSNITKLEQKKNPQAVLDVLKFYDSNTVKQKYLSFTPPEKDGFPSGTPALNTKGSETSAVVTEEDDDDEDAAPPVIAPRPDHTKSIYTRSVIDPIPAPVGDSNVDSGAKSSDKQKKKAKMTDEEIMEKLRTIVSIGDPKKKYTRYEKIGQGASGTVFTATDVALGQEVAIKQINLQKQPKKELIINEILVMKELKNPNIVNFLDSYLVGDELFVVMEYLAGGSLTDVVTETCMDEAQIAAVCRECLQALEFLHANQVIHRDIKSDNVLLGMEGSVKLTDFGFCAQITPEQSKRSTMVGTPYWMAPEVVTRKAYGPKVDIWSLGIMAIEMVEGEPPYLNENPLRALYLIATNGTPELQNPEKLSPIFRDFLNRCLEMDVEKRGSAKELLQHPFLKLAKPLSSLTPLILAAKEAMKSNR

Experiments:
Raf-1 (331-345) peptide = biological target: T1, Raf-1 (331-345) peptide
T1 chain: RPRGQRDSSFFWEIE

[1] = biological target: Raf-CR3 (wild type), recombinant Raf-1 catalytic fragment, calmodulin binding protein fusion, P04049
[2] = biological target: Raf-CR3[A338A339], P04049
[3] = biological target: Raf-CR3[D338E339], P04049

Row | Protein | phosphorylation of the Raf-1 peptide (Raf-1 (331-345) peptide) | phosphorylation of Raf-CR3 [1] | phosphate incorporation into Raf-CR3 [1] | phosphate incorporation into Raf-CR3 [2] | phosphate incorporation into Raf-CR3 [3]
1 | B1 | Recombinant His-tagged mouse PAK3 from Sf9 cells phosphorylated the Raf-1 peptide | strongly phosphorylated wild type Raf-CR3 | – | – | –
2 | B2 | – | – | 4-fold more phosphate into wild type Raf-CR3 than into the non-phosphorylatable Raf-CR3[D338E339] or Raf-CR3[A338A339] site mutants | reduced ability of immunoprecipitated PAK3 to phosphorylate the Raf-CR3[A338,A339] or Raf-CR3[D338,E339] mutant proteins | reduced ability of immunoprecipitated PAK3 to phosphorylate the Raf-CR3[A338,A339] or Raf-CR3[D338,E339] mutant proteins
